Ratio to parent and IC50 of neutralization of the parental LAI virus data for two substances are collected here from paper PMC6462529.

The target of one assay is 2G12. The assay is described as follows: D7324-capture ELISA. To be noted: PGT145-purified trimers; SOSIP.664 AUC-value printed 2.89.
In the next assay the target is F105. The assay is described as follows: D7324-capture ELISA. The note with it: PGT145-purified trimers; SOSIP.664 AUC-value printed 0.12. Background: An ELISA detects its analyte on a solid surface through an enzyme-linked reagent.
For a further assay, the target named is gl-CH01. The assay is described as follows: D7324-capture ELISA. To be noted: PGT145-purified trimers; SOSIP.664 AUC-value printed 0.14.
A further assay addresses VRC26.09. Description: D7324-capture ELISA. The note with it: PGT145-purified trimers; SOSIP.664 AUC-value printed 0.49.
A further assay concerns the target PG9. The assay is described as follows: D7324-capture ELISA. To be noted: PGT145-purified trimers; SOSIP.664 AUC-value printed 1.70.
In another assay the target is PGT151. Description: D7324-capture ELISA. The note with it: PGT145-purified trimers; SOSIP.664 AUC-value printed 0.75.
The next assay has as its target CH01. Description: D7324-capture ELISA. The note with it: PGT145-purified trimers; SOSIP.664 AUC-value printed 0.32.
The next assay addresses PG16. The assay is described as follows: D7324-capture ELISA. The note with it: PGT145-purified trimers; SOSIP.664 AUC-value printed 0.55.
The target of another assay is gl-PG9. Description: D7324-capture ELISA. The note with it: PGT145-purified trimers; SOSIP.664 AUC-value printed 0.14.
The target of another assay is PGT121. Description: D7324-capture ELISA. The note with it: PGT145-purified trimers; SOSIP.664 AUC-value printed 1.60.
For another assay, the target named is PGT145. Description: D7324-capture ELISA. To be noted: PGT145-purified trimers; SOSIP.664 AUC-value printed 0.68.
For another assay, the target named is CH103. The assay is described as follows: D7324-capture ELISA. The note with it: PGT145-purified trimers; SOSIP.664 AUC-value printed 1.34.
In the next assay the target is gl-PG16. Description: D7324-capture ELISA. The note with it: PGT145-purified trimers; SOSIP.664 AUC-value printed 0.01.
For assay [1], the target named is HIV-1 LAI Env (parental LAI virus) (HIV-1 (isolate LAI)) (UniProt P03377).

Consider “BG505 SOSIP.664-D7324 trimer E153C; R178C; G152E”, for which the ratio to parent in the assay with 2G12 was 1; with F105, 4.7; with gl-CH01, 2.1; in the assay with VRC26.09, 1.3; with PG9 it was 2; in the assay with PGT151 it was 1. For the same substance, the ratio to parent was found to be 1.9 with CH01; 1.7 with PG16; 1.4 in the assay with gl-PG9; 1.5 with PGT121; 1 in the assay with PGT145; 2.3 in the assay with CH103. Also, in the assay with gl-PG16, the ratio to parent turned out to be 3.9.
Consider PG9 (antibody), for which the IC50 of neutralization of the parental LAI virus in assay [1] is 2 mg/L.
